# Results from US6835807B1, “Drug complex and drug delivery system” (Daiichi Pharmaceuticals Co., Ltd., priority 1998, dated 2004).
# Marks after values point to notes of the source that are not given here.
# Columns and labels:
# [1] = system: Meth A tumor-bearing mice; assay: Maximum tolerated dose of the drug complexes of Examples 5, 6 and 7 (Example 9); type: in vivo, BALB/c mice; details: for BWLmax, maximum body-weight reduction rate / N, mice died/mice used / day when the maximum body-weight reduction was observed: single administration on the 13th day
# Method: Meth A cells were transplanted into BALB/c mice to prepare Meth A tumor-bearing mice. On the 13th day, the drug complexes obtained in Examples 5, 6 and 7 were singly administered. After the administration, measurement of the body weight and observation of toxic death were made with time, and the maximum body-weight reduction rate and mortality were calculated, which are shown in Table 5. The dose is expressed in terms of the weight of anhydrous free base of DX-8951.
# On the basis of the dose in which body weight reduction and death were observed, MTD of each complex were judged as follows.
# [2] = Release of the drug compound from the drug complex in plasma (Example 8); type: in vitro ADME; details: 37° C., 50 μg/ml, after 20 hours
# Method: (§1) (50 μg/ml). […] The released amount of the drug is expressed in percentage of the released amount of the drug to the amount of the drug in the drug complex used.
# [3] = Release of the drug compound from the drug complex in Meth A homogenate (Example 8); type: in vitro ADME, murine; details: for released amount of the drug (DX-8951), percentage of the drug in the drug complex used: 37° C., 50 μg/ml, after 20 hours
# Method: as §1
# Meth A cells = assay: Antineoplastic activity of the complexes of Examples 1, 5 and 6 (Example 10); type: in vivo, BALB/c mice; details: for IR, diminution rate of the tumor: 21th day; for Average tumor weight: tumor weighed on the 21th day
# Method: Meth A cells were transplanted into BALB/c mice to prepare Meth A tumor-bearing mice. On the 7th day after the transplantation, the drug complexes shown in Examples 1, 5 and 6 were singly administered, respectively. The weight of the tumor was measured on the 21th day to evaluate the inhibitory activity on the tumor and the toxicity. In the table, * represents significance in Dunnet's test (*** p<0.001, ** P<0.01, * P<0.05), the dose is expressed in terms of the weight of anhydrous free base of DX-8951, and IR represents the diminution rate of the tumor.
# [4] = Release of the drug compound from the drug complex in buffer (Example 8); type: physicochemical; details: for released amount of the drug (DX-8951), percentage of the drug in the drug complex used: 37° C., 50 μg/ml, after 20 hours
# Method: as §1
# [5] = 0.15625 mg/kg, singly administered on the 7th day
# [6] = 0.3125 mg/kg, singly administered on the 7th day
# [7] = 0.625 mg/kg, singly administered on the 7th day
# [8] = 1.25 mg/kg, singly administered on the 7th day
# [9] = 1.875 mg/kg, singly administered on the 7th day
substance,measurement,setting,value
Carboxymethyldextran polyalcohol-Gly-Gly-Phe-Gly-NH-p-C 6H4—CH2—O—CO-DX-8951 [Example 5],"BWLmax, maximum body-weight reduction rate",[1]; 0.625 mg/kg,2.0%
same,"N, mice died/mice used",[1]; 0.625 mg/kg,0/3
same,day when the maximum body-weight reduction was observed,[1]; 0.625 mg/kg,14 days
same,"BWLmax, maximum body-weight reduction rate",[1]; 1.25 mg/kg,5.0%
same,"N, mice died/mice used",[1]; 1.25 mg/kg,0/3
same,day when the maximum body-weight reduction was observed,[1]; 1.25 mg/kg,18 days
same,"BWLmax, maximum body-weight reduction rate",[1]; 5 mg/kg,28.6%
same,"N, mice died/mice used",[1]; 5 mg/kg,3/3
same,day when the maximum body-weight reduction was observed,[1]; 5 mg/kg,18 days
same,"BWLmax, maximum body-weight reduction rate",[1]; 10 mg/kg,27.1%
same,"N, mice died/mice used",[1]; 10 mg/kg,3/3
same,day when the maximum body-weight reduction was observed,[1]; 10 mg/kg,18 days
same,MTD relative to MTD of the drug complex obtained in Example 1,[1]; Meth A tumor-bearing mice,about ⅓
same,"N, mice died/mice used",[1]; […],3/3
same,"released amount of the drug (DX-8951), percentage of the drug in the drug complex used",[2],0.13%
same,"released amount of the drug (DX-8951), percentage of the drug in the drug complex used",[3]; Meth A homogenate (pH 4.5),110.69%
same,"released amount of the drug (DX-8951), percentage of the drug in the drug complex used",[3]; Meth A homogenate (pH 5.5),110.31%
same,"released amount of the drug (DX-8951), percentage of the drug in the drug complex used",[3]; Meth A homogenate (pH 6.5),42.71%
same,release of the drug in words,[3]; weakly acidic homogenate,rapidly released
same,"BWLmax, maximum body-weight reduction rate",Meth A cells; [5],<0%
same,"N, mice died/mice used",Meth A cells; [5],0/6
same,"IR, diminution rate of the tumor",Meth A cells; [5],9%
same,Average tumor weight,Meth A cells; [5],2.394 ± 0.231 g
same,"BWLmax, maximum body-weight reduction rate",Meth A cells; [6],<0%
same,"N, mice died/mice used",Meth A cells; [6],0/6
same,"IR, diminution rate of the tumor",Meth A cells; [6],57%
same,Average tumor weight,Meth A cells; [6],1.128 ± 0.173*** g
same,"BWLmax, maximum body-weight reduction rate",Meth A cells; [7],<0%
same,"N, mice died/mice used",Meth A cells; [7],0/6
same,"IR, diminution rate of the tumor",Meth A cells; [7],88%
same,Average tumor weight,Meth A cells; [7],0.328 ± 0.164*** g
same,"BWLmax, maximum body-weight reduction rate",Meth A cells; [8],<0%
same,"N, mice died/mice used",Meth A cells; [8],0/6
same,"IR, diminution rate of the tumor",Meth A cells; [8],100%
same,Average tumor weight,Meth A cells; [8],0.010 ± 0.004*** g
same,"BWLmax, maximum body-weight reduction rate",Meth A cells; [9],12.3%
same,"N, mice died/mice used",Meth A cells; [9],0/6
same,day when the maximum body-weight reduction was observed,Meth A cells; [9],13 days
same,"IR, diminution rate of the tumor",Meth A cells; [9],100%
same,Average tumor weight,Meth A cells; [9],0.011 ± 0.003*** g
same,minimal effective dose relative to that of the drug complex shown in Example 1,Meth A cells; Meth A tumor-bearing mice,about ⅓
same,"released amount of the drug (DX-8951), percentage of the drug in the drug complex used",[4]; Buffer (pH 4.5),0.79%
same,"released amount of the drug (DX-8951), percentage of the drug in the drug complex used",[4]; Buffer (pH 5.5),0.71%
same,"released amount of the drug (DX-8951), percentage of the drug in the drug complex used",[4]; Buffer (pH 6.5),0.8%
same,release of the drug in words,[4]; buffer,hardly released
